The values below come from publication PMC5286394, “Architecture of the yeast Elongator complex” (EMBO Reports, 2016).

B1: endogenously TAP-tagged Elp1 (natural protein, UniProt Q06706 1-1349, looked up)
chain: MVEHDKSGSKRQELRSNMRNLITLNKGKFKPTASTAEGDEDDLSFTLLDSVFDTLSDSITCVLGSTDIGAIEVQQFMKDGSRNVLASFNIQTFDDKLLSFVHFADINQLVFVFEQGDIITATYDPVSLDPAETLIEIMGTIDNGIAAAQWSYDEETLAMVTKDRNVVVLSKLFEPISEYHLEVDDLKISKHVTVGWGKKETQFRGKGARAMEREALASLKASGLVGNQLRDPTMPYMVDTGDVTALDSHEITISWRGDCDYFAVSSVEEVPDEDDETKSIKRRAFRVFSREGQLDSASEPVTGMEHQLSWKPQGSLIASIQRKTDLGEEDSVDVIFFERNGLRHGEFDTRLPLDEKVESVCWNSNSEALAVVLANRIQLWTSKNYHWYLKQELYASDISYVKWHPEKDFTLMFSDAGFINIVDFAYKMAQGPTLEPFDNGTSLVVDGRTVNITPLALANVPPPMYYRDFETPGNVLDVACSFSNEIYAAINKDVLIFAAVPSIEEMKKGKHPSIVCEFPKSEFTSEVDSLRQVAFINDSIVGVLLDTDNLSRIALLDIQDITQPTLITIVEVYDKIVLLRSDFDYNHLVYETRDGTVCQLDAEGQLMEITKFPQLVRDFRVKRVHNTSAEDDDNWSAESSELVAFGITNNGKLFANQVLLASAVTSLEITDSFLLFTTAQHNLQFVHLNSTDFKPLPLVEEGVEDERVRAIERGSILVSVIPSKSSVVLQATRGNLETIYPRIMVLAEVRKNIMAKRYKEAFIVCRTHRINLDILHDYAPELFIENLEVFINQIGRVDYLNLFISCLSEDDVTKTKYKETLYSGISKSFGMEPAPLTEMQIYMKKKMFDPKTSKVNKICDAVLNVLLSNPEYKKKYLQTIITAYASQNPQNLSAALKLISELENSEEKDSCVTYLCFLQDVNVVYKSALSLYDVSLALLVAQKSQMDPREYLPFLQELQDNEPLRRKFLIDDYLGNYEKALEHLSEIDKDGNVSEEVIDYVESHDLYKHGLALYRYDSEKQNVIYNIYAKHLSSNQMYTDAAVAYEMLGKLKEAMGAYQSAKRWREAMSIAVQKFPEEVESVAEELISSLTFEHRYVDAADIQLEYLDNVKEAVALYCKAYRYDIASLVAIKAKKDELLEEVVDPGLGEGFGIIAELLADCKGQINSQLRRLRELRAKKEENPYAFYGQETEQADDVSVAPSETSTQESFFTRYTGKTGGTAKTGASRRTAKNKRREERKRARGKKGTIYEEEYLVQSVGRLIERLNQTKPDAVRVVEGLCRRNMREQAHQIQKNFVEVLDLLKANVKEIYSISEKDRERVNENGEVYYIPEIPVPEIHDFPKSHIVDF
notes: Elp1, S. cerevisiae, endogenous protein with TAP tag (Elp1-TAP::TRP1); also called Elp1-TAP
B2: Full-length His6-tagged ScElp3, refolded and anaerobically reconstituted (enzyme, S. cerevisiae, UniProt Q02908 1-557, looked up)
chain: MARHGKGPKTNKKKLAPEKERFIQCCADITLELTDSLTSGTTREINLNGLITKYSKKYKLKQQPRLTDIINSIPDQYKKYLLPKLKAKPVRTASGIAVVAVMCKPHRCPHIAYTGNICVYCPGGPDSDFEYSTQSYTGYEPTSMRAIRARYDPYEQARGRVEQLKQLGHSIDKVEYVLMGGTFMSLPKEYREDFIVKLHNALSGFNGNDIDEAILYSQQSLTKCVGITIETRPDYCTQTHLDDMLKYGCTRLEIGVQSLYEDVARDTNRGHTVRSVCETFAVSKDAGYKVVSHMMPDLPNVGMERDIEQFKEYFENPDFRTDGLKIYPTLVIRGTGLYELWKTGRYKSYSANALVDLVARILALVPPWTRIYRVQRDIPMPLVTSGVDNGNLRELALARMKDLGTTCRDVRTREVGIQEVHHKVQPDQVELIRRDYYANGGWETFLSYEDPKKDILIGLLRLRKASKKYTYRKEFTSQRTSIVRELHVYGSVVPLHSRDPRKFQHQGFGTLLMEEAERIAKEEHGSEKISVISGVGVRNYYGKLGYELDGPYMSKRI
notes: Elp3, Elongator subunit 3, S. cerevisiae; Carries a reconstituted Fe/S cluster; also called ScElp3H6
B3: endogenous Elp3 (enzyme, UniProt Q02908 1-557, looked up)
chain: B2 chain
notes: Elp3, S. cerevisiae, endogenous protein; source: endogenous, S. cerevisiae strains BS1173 and BSY2369, co-purified with Elp1-TAP or Elp6-TAP
B4: synthetic peptide of the conserved N-terminal region of Elp4 (aa1–27) (peptide, UniProt Q02884 1-27, looked up)
peptide: MSFRKRGEILNDRGSGLRGPLLRGPPR
notes: Elp4, S. cerevisiae, residues 1–27; source: synthetic peptide (Peptide Specialty Laboratories, Germany)
B5: endogenous Elp4 (natural protein, UniProt Q02884 1-456, looked up)
chain: MSFRKRGEILNDRGSGLRGPLLRGPPRTSSTPLRTGNRRAPGNVPLSDTTARLKKLNIADESKTKMGLDSSHVGVRPSPATSQPTTSTGSADLDSILGHMGLPLGNSVLVEEQSTTEFHSILGKLFAAQGIVHNRISDSSADKTRNGDTHVIVLSLNQMFAKELPGIYKGSRKQMKKNLISEEESKVTVQNLNETQRSTPSRYKDLKIAWKYKLADEKRLGSPDRDDIQQNSEYKDYNHQFDITTRLMPAPIASELTFIAPTQPVSTILSQIEQTIKRNDKKLIRIVIPSLLHPAMYPPKMFESSEIIGLMHGVRSLVKKYYERVVLFASISIDIITPPLLVLLRNMFDSVINLEPFNQEMTEFLERVYKSQPGKIQHGLVHILKLPVFTDRGEMRVLKSEWAFKNGRKKFEIEQWGIPVDDAEGSAASEQSHSHSHSDEISHNIPAKKTKISLDY
notes: Elp4, S. cerevisiae, endogenous protein; source: endogenous, S. cerevisiae strains BS1173 and BSY2369, co-purified with Elp1-TAP or Elp6-TAP
B6: synthetic peptide of the conserved N-terminal region of Elp4 (aa1–10) (peptide, UniProt Q02884 1-10, looked up)
peptide: MSFRKRGEIL
notes: Elp4, S. cerevisiae, residues 1–10; source: synthetic peptide (Peptide Specialty Laboratories, Germany)

Data set [1] concerns the molecule itself. Briefly: negative-stain EM reconstruction with integrative modelling (EM map and cross-links); Elp123 sub-complex from Elp1-TAP purification, 0.01% glutaraldehyde, gel filtration; 1% uranyl acetate; C2 symmetry, 27 Å.
Data set [2] has as its target T1, GST-tagged full-length Elp1 (S. cerevisiae, UniProt Q06706 1-1349).
T1 construct: Elp1, Elongator subunit 1, S. cerevisiae; also called GST-Elp1; source: E. coli BL21 pSarRare, purified (NiNTA, S200 gel filtration); not shown: His6, N-terminal, kept; GST, N-terminal, kept
T1 sequence (looked up): B1 chain
Briefly: pull-down; GST pull-down: 20 μg GST-tagged protein and increasing amounts of untagged partner with glutathione Sepharose, 2 h at 4°C, 20 mM Tris pH 7.5, 150 mM NaCl, 5 mM DTT, 0.1% Tween-20; five washes; SDS–PAGE, Coomassie. As to conditions: both partners purified.

Data set [3] deals with B1. Nature of the data set: tandem-affinity purification (SDS–PAGE); endogenous TAP-tagged bait from yeast lysate; IgG Sepharose, TEV elution, Calmodulin Sepharose, EGTA elution; HEPES pH 7.9, 125 mM NaCl. As to conditions: partners not purified.
In data set [4] the target is T2, purified N-terminal region of Elp1 (S. cerevisiae).
T2 chain: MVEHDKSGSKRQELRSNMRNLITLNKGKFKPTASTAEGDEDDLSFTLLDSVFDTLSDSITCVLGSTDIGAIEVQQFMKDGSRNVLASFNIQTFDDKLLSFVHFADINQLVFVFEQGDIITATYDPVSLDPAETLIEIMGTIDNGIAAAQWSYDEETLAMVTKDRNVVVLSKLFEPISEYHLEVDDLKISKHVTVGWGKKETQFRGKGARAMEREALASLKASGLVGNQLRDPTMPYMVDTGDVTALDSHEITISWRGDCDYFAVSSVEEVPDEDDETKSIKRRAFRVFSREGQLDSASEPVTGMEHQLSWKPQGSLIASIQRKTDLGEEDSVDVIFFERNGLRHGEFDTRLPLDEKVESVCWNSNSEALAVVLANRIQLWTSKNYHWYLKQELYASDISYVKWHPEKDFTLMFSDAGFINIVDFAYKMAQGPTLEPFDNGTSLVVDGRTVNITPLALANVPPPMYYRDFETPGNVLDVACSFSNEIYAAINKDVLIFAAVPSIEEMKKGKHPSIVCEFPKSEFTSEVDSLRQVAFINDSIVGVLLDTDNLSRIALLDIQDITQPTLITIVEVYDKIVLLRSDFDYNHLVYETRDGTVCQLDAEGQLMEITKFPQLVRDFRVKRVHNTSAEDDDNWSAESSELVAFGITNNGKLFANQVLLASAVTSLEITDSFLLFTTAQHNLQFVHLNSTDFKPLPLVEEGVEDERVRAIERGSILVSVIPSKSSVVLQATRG
Briefly: ITC; VP-ITC; 20 mM Tris–HCl pH 7.5, 150 mM NaCl, 2 mM β-mercaptoethanol; 10 μM in the cell, 100 μM in the syringe. As to conditions: both partners purified. On the technique in general: ITC needs no label: the signal is the heat of the interaction.

For the data set “endogenous Elp3”, the target named is B3. Nature of the data set: cross-linking; XL-MS of purified Elongator (Elp1-TAP sample, 1 mg/ml) with isotope-coded DSS or DSG, 0.5–2 mM, 30 min at 37°C; xQuest/xProphet, ld score at least 30. The settings on record: both partners purified.

One may read the stoichiometry N as the number of molecules, sites or subunits per partner or assembly. As for B1, the “stoichiometry N” value in data set [1] was 2.
In the case of B2, the binding result in data set [2] was “binds”.
Take B3: the binding result in data set [3] is listed as “binds”.
Usually Kd stands for the constant that tells how readily two partners part at equilibrium. A lower Kd goes with a tighter complex. In data set [4], B4 displayed a dissociation constant Kd of 1600 ± 400 nM.
Turning to B5, the binding result (with endogenous Elp3; in data set [3]) was “binds” each time.
In turn, B6 registered a Kd in data set [4] of 2700 ± 300 nM.
